From patent US20240226230A1 (MAYO FOUNDATION FOR MEDICAL EDUCATION AND RESEARCH, published 2024)
One block for each binder: values may come before it.

Legend:
Test in all cases: co-IP of GFP-tagged KPNB1 truncations, western blot
endogenous Nup62 = target: T1, endogenous Nup62 (human, UniProt P37198 2-522)
T1 construct: Detected with anti-Nup62
T1 sequence (looked up): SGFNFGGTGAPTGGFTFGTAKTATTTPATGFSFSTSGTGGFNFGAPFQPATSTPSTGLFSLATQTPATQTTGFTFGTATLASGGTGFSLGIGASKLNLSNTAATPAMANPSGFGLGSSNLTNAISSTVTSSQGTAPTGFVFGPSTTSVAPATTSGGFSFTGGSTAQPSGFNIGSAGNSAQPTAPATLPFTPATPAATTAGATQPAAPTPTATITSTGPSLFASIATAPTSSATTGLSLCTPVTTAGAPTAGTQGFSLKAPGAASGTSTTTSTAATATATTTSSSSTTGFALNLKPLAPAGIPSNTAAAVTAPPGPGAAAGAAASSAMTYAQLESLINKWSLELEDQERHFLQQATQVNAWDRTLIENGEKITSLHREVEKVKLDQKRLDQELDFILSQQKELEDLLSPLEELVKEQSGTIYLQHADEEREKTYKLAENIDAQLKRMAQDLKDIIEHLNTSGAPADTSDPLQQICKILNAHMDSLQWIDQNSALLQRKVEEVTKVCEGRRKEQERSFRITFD
Text: (§1) FIG. 21A) Schematic domain structure of KPNB1. KPNB1 is comprised of 19 HEAT repeats (H1-19). RanGTP and importin-α interact with H1-8 and H8-19, respectively. FG-Nups bind to two regions of KPNB1, H5-7 and H14-16. FIG. 21B) Lysates from HEK293T cells expressing GFP, GFP-KPNB1 full-length (FL), N-terminal fragments of KPNB1 (H1-9 . . . H1) or the C-terminal fragment of KPNB1 (H10-19) were subjected to immunoprecipitation with GFP-Trap magnetic beads. Whole cell lysates (input) and immunoprecipitates (IP) were subjected to western blot analysis using indicated antibodies. KPNB1 H1-8, the smallest fully active KPNB1 fragment in reducing TDP-43 aggregation, strongly interacts with FG-Nups and Ran, and weakly with importin-al in comparison with full-length KPNB1. FIG. 21C) (Top) Schematic domain structure of KPNB1 H1-8^mNIS harboring four missense mutations (1178A, F217A, Y255A, I263R) in the nucleoporin-interacting site (NIS). (Bottom) Lysates from HEK293T cells expressing GFP, GFP-KPNB1 H1-8^WT or H1-8^mNIS were subjected to immunoprecipitation with GFP-Trap magnetic beads. Whole cell lysates (input) and immunoprecipitates (IP) were subjected to western blot analysis using indicated antibodies. […] Hoechst staining was used to outline nuclei. Scale bar: 5 μm. […] Statistical analysis was performed using one-way ANOVA and Bonferroni's post hoc test (**p<0.01, ***p<0.001, n=4). FIG. 21F) IF of HEK293T cells co-expressing GFP-(GR)₁₀₀ with an empty plasmid (ctrl), FLAG-tagged KPNB1 H1-8^WT or H1-8^mNIS and stained for endogenous TDP-43. Unlike KPNB1 H1-8^mNIS, KPNB1 H1-8^WT prevents the sequestration of endogenous TDP-43 in cytoplasmic GR aggregates. Arrowheads point to cytoplasmic GR aggregates. Hoechst staining was used to outline nuclei. Scale bar: 5 μm.

endogenous Nup50 = target: T2, endogenous Nup50 (human, UniProt Q9UKX7 1-468, limits assumed)
T2 construct: Detected with anti-Nup50
T2 sequence (looked up): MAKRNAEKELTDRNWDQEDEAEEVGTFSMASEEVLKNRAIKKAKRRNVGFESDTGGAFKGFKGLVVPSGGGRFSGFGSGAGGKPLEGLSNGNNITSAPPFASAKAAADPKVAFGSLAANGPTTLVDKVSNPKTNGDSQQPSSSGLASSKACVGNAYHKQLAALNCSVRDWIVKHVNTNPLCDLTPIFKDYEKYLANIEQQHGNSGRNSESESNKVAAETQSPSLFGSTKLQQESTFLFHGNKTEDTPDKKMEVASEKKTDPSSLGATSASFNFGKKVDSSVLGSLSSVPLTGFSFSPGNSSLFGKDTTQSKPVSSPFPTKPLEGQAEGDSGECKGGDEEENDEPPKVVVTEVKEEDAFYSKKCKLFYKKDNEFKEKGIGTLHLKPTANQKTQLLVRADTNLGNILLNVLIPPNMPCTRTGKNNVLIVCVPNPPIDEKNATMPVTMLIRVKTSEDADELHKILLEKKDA
Text: as §1

endogenous Ran = endogenous Ran (human, UniProt P62826 2-216)
Text: as §1

endogenous importin-α1 = endogenous importin-α1 (human, UniProt P52292 2-529)
Text: as §1

B1: GFP-KPNB1 H1-5 (receptor)
chain: GGGSGGGSGGGSMELITILEKTVSPDRLELEAAQKFLERAAVENLPTFLVELSRVLANPGNSQVARVAAGLQIKNSLTSKDPDIKAQYQQRWLAIDANARREVKNYVLQTLGTETYRPSSASQCVAGIACAEIPVNQWPELIPQLVANVTNPNSTEHMKESTLEAIGYICQDIDPEQLQDKSNEILTAIIQGMRKEEPSNNVKLAATNALLNSLEFTKANF
notes: not shown: GFP/EGFP tag (pEGFP-C1, Clontech)
binding result (endogenous Nup62): no binding | binding result (endogenous Nup50): no binding | binding result (endogenous Ran): no binding | binding result (endogenous importin-α1): no binding

B2: GFP-KPNB1 H1-8 (receptor)
chain: GGGSGGGSGGGSMELITILEKTVSPDRLELEAAQKFLERAAVENLPTFLVELSRVLANPGNSQVARVAAGLQIKNSLTSKDPDIKAQYQQRWLAIDANARREVKNYVLQTLGTETYRPSSASQCVAGIACAEIPVNQWPELIPQLVANVTNPNSTEHMKESTLEAIGYICQDIDPEQLQDKSNEILTAIIQGMRKEEPSNNVKLAATNALLNSLEFTKANFDKESERHFIMQVVCEATQCPDTRVRVAALQNLVKIMSLYYQYMETYMGPALFAITIEAMKSDIDEVALQGIEFWSNVCDEEMDLAIEASEAAEQGRPPEHTSKFYAKGALQYLVPILTQTLTKQDENDDDDDWNPCKAAGVCLMLLATCCED
notes: also called GFP-KPNB1 H1-8^WT; not shown: GFP/EGFP tag (pEGFP-C1, Clontech)
binding result (endogenous Nup62): binds | binding result (endogenous Nup50): binds | binding result (endogenous Ran): binds

B6: GFP-KPNB1 H1-9 (receptor)
chain: GGGSGGGSGGGSMELITILEKTVSPDRLELEAAQKFLERAAVENLPTFLVELSRVLANPGNSQVARVAAGLQIKNSLTSKDPDIKAQYQQRWLAIDANARREVKNYVLQTLGTETYRPSSASQCVAGIACAEIPVNQWPELIPQLVANVTNPNSTEHMKESTLEAIGYICQDIDPEQLQDKSNEILTAIIQGMRKEEPSNNVKLAATNALLNSLEFTKANFDKESERHFIMQVVCEATQCPDTRVRVAALQNLVKIMSLYYQYMETYMGPALFAITIEAMKSDIDEVALQGIEFWSNVCDEEMDLAIEASEAAEQGRPPEHTSKFYAKGALQYLVPILTQTLTKQDENDDDDDWNPCKAAGVCLMLLATCCEDDIVPHVLPFIKEHIKNPDWRYRDAAVMAFGCILEGP
notes: also called N-terminal half of KPNB1 (HEAT repeats 1-9); not shown: GFP/EGFP tag (pEGFP-C1, Clontech)
binding result (endogenous Nup62): binds | binding result (endogenous Nup50): binds | binding result (endogenous Ran): binds | binding result (endogenous importin-α1): binds

More lines, now with the values ahead:

binding result (endogenous Nup62): no binding | binding result (endogenous Nup50): no binding | binding result (endogenous Ran): no binding | binding result (endogenous importin-α1): no binding
B3: GFP-KPNB1 H1-3 (receptor)
chain: GGGSGGGSGGGSMELITILEKTVSPDRLELEAAQKFLERAAVENLPTFLVELSRVLANPGNSQVARVAAGLQIKNSLTSKDPDIKAQYQQRWLAIDANARREVKNYVLQTLGTETYRPSSASQCVAGIACAEIPVNQWP
notes: as for B1

binding result (endogenous Nup62): no binding | binding result (endogenous Nup50): no binding | binding result (endogenous Ran): no binding | binding result (endogenous importin-α1): no binding
B4: GFP-KPNB1 H1-4 (receptor)
chain: GGGSGGGSGGGSMELITILEKTVSPDRLELEAAQKFLERAAVENLPTFLVELSRVLANPGNSQVARVAAGLQIKNSLTSKDPDIKAQYQQRWLAIDANARREVKNYVLQTLGTETYRPSSASQCVAGIACAEIPVNQWPELIPQLVANVTNPNSTEHMKESTLEAIGYICQDIDPEQLQ
notes: as for B1

binding result (endogenous Nup62): no binding | binding result (endogenous Nup50): no binding | binding result (endogenous Ran): no binding | binding result (endogenous importin-α1): no binding
B5: GFP-KPNB1 H1-7 (receptor)
chain: GGGSGGGSGGGSMELITILEKTVSPDRLELEAAQKFLERAAVENLPTFLVELSRVLANPGNSQVARVAAGLQIKNSLTSKDPDIKAQYQQRWLAIDANARREVKNYVLQTLGTETYRPSSASQCVAGIACAEIPVNQWPELIPQLVANVTNPNSTEHMKESTLEAIGYICQDIDPEQLQDKSNEILTAIIQGMRKEEPSNNVKLAATNALLNSLEFTKANFDKESERHFIMQVVCEATQCPDTRVRVAALQNLVKIMSLYYQYMETYMGPALFAITIEAMKSDIDEVALQGIEFWSNVCDEEMDLAIEASEAAEQGRPP
notes: as for B1
